Experimental findings from paper PMC6537880 (Analytical chemistry, 2016) are described below.

This data set deals with the molecule itself. The data set is described as follows: native MS.

B1: AAV8 capsid viral protein VP3 (natural protein)
chain: MAAGGGAPMADNNEGADGVGSSSGNWHCDSTWLGDRVITTSTRTWALPTYNNHLYKQISNGTSGGATNDNTYFGYSTPWGYFDFNRFHCHFSPRDWQRLINNNWGFRPKRLSFKLFNIQVKEVTQNEGTKTIANNLTSTIQVFTDSEYQLPYVLGSAHQGCLPPFPADVFMIPQYGYLTLNNGSQAVGRSSFYCLEYFPSQMLRTGNNFQFTYTFEDVPFHSSYAHSQSLDRLMNPLIDQYLYYLSRTQTTGGTANTQTLGFSQGGPNTMANQAKNWLPGPCYRQQRVSTTTGQNNNSNFAWTAGTKYHLNGRNSLANPGIAMATHKDDEERFFPSNGILIFGKQNAARDNADYSDVMLTSEEEIKTTNPVATEEYGIVADNLQQQNTAPQIGTVNSQGALPGMVWQNRDVYLQGPIWAKIPHTDGNFHPSPLMGGFGLKHPPPQILIKNTPVPADPPTTFNQSKLNSFITQYSTGQVSVEIEWELQKENSKRWNPEIQYTSNYYKSTSVDFAVNTEGVYSEPRPIGTRYLTRNL
With B1, the binding result is “binds”.
